Consider eight molecules from patent US10913773B2, “Bicyclic peptidyl inhibitor of tumor necrosis factor-alpha” (Ohio State Innovation Foundation, priority 2016, dated 2021).

Where two headings read alike, the source gives them in different places. Starred links: 1 amine or outer side, 2 acyl side, 3 side chain; linkers in the order of their positions; H or OH if unused. Positions of bridges follow the written chain, without caps; N, C: chain ends. Non-standard residues stand in square brackets, D forms with d. Residues, ends and D or L forms follow the SMILES beside them. Primed or numbered codes have the meaning given here. No end group written: not given here. *: point of attachment. FITC = O=C1OC2(c3ccc(O)cc3Oc3cc(O)ccc32)c2ccc(NC(=S)*)cc21; Trimesoyl = O=C(c1cc(C(=O)[*:2])cc(C(=O)[*:3])c1)[*:1]; trimesoyl″ = benzene-1,3,5-tricarbonyl scaffold; Phe(4-F) = N[C@@H](Cc1ccc(F)cc1)C(=O)O; trimesoyl = benzene-1,3,5-tricarbonyl; Nle = CCCC[C@H](N)C(=O)O; Dap = NC[C@H](N)C(=O)O; AEEA = NCCOCCOCC(=O)O; βAla = NCCC(=O)O

A short description of data set [1]: Serum stability test. It is filed as in vitro ADME, human. To be noted: 37° C. On the procedure: Diluted human serum (25%) was centrifuged at 15,000 rpm for 10 min, and the supernatant was collected. A peptide stock solution was diluted into the supernatant to a final concentration of 5 μM and incubated at 37° C. At various time points (0-8 h), 200-μL aliquots were withdrawn and mixed with 50 μL of 15% trichloroacetic acid and 200 μL of acetonitrile. After incubation at 4° C. overnight, the mixture was centrifuged at 15,000 rpm for 10 min in a microcentrifuge, and the supernatant was analyzed by reversed-phase HPLC equipped with an analytical C18 column (Waters). The amount of remaining intact peptide (%, relative that of time zero control) was determined by integrating the area underneath the peptide peak (monitored at 214 nm).

The target of data set [2] is T1, TNFα-TNFR1 interaction (Homo sapiens, UniProt P01375).
T1 construct: made in house; host or cells: Escherichia coli (TNFα)
The data set is described as follows: ELISA inhibition of TNFα-TNFR1 interaction (immobilized biotinylated TNFα, TNFR1-HRP). It is filed as binding. To be noted: inhibition of TNFα-TNFR1 interaction, unlabeled peptides. On the procedure: Inhibition of TNFα-TNRF1 interaction by ELISA was carried out as previously described (Lian, W.; et al., supra).
Because of its high-throughput capability, FA analysis had been used to generate all of the SAR data described above. […] To confirm the SAR data obtained by FA analysis, some of the compounds in Table 5 (as well as new compounds) were resynthesized without the Lys(FITC) label and employed a more sensitive ELISA-based assay to determine the IC50 values for inhibition of the TNFα-TNFR1 interaction. Briefly, biotinylated TNFα was immobilized onto a NeutrAvidin-coated surface. TNFR1 conjugated with horseradish peroxidase (HRP) (0.5 nM) was added along with different concentrations of a peptide inhibitor. After washing, the amount of bound TNFR1-HRP was quantitated by ELISA. […] In agreement with the FA results, either extension at the C-terminus of β-Ala with another amino acid (C1-67 to C1-70) or side-chain modification of β-Ala (C1-71 to C1-73) decreased TNFα binding.
(In general: ELISA stands for enzyme-linked immunosorbent assay.)

For data set [3], the system named is TNFα-induced cell death in WEHI-13VAR fibroblasts (recombinant human TNFα). It is filed as cell-based. On the procedure:
WEHI-13VAR fibroblasts were purchased from American Type Culture Collection (ATCC). For maintenance, cells were grown in full medium as RPMI-1640 supplemented with 10% FBS and 1% Abs. For toxicity assay, cells were seeded in a 96-well plate at a density of 5×10^3 cells/well in 100 μL of RPMI-1640/1% Abs supplemented with 10% or 5% FBS and allowed to grow overnight. Varying concentrations of recombinant human TNFα (0-250 ng/mL) or commercial mouse TNFα were (0-100 pg/mL) were incubated with 10 μM peptide and actinomycin D (1 μg/mL) in 100 μL of corresponding growth medium for 1 h at 37° C. Next, the medium in the 96-well plate was removed and replaced with the above fresh mixture and the cells were incubated overnight. Next day, 10 μL of the 3-(4, 5-dimethylthiazolyl-2)-2, 5-diphenyltetrazolium bromide (MTT, final concentration 0.5 mg/ml) was added to each well and incubated at 37° C. for 3 h, following by the addition of 100 μL of the MTT solubilization solution. The plate was kept in the incubator overnight to let the formazan crystals to completely dissolve, and the absorbance at 570 nm was measured on a TECAN plate reader. The LD50 was obtained as plotting the viability as a function of the TNFα concentration.
One of the biological functions of TNFα is to induce death signaling. Inhibitors against the TNFα-TNFR interaction are expected to protect cells against TNFα induced cell death. Therefore, anticachexin C1, C1-74, and C1-74-2 through C1-74-5 were compared for their ability to protect cultured WEHI-13 VAR fibroblasts, which are highly sensitive to TNFα in the presence of actinomycin-D, against TNFα-induced cell death (Khabar, K. S. A.; et al., “WEHI-13VAR: A Stable and Sensitive Variant of WEHI 164 Clone 13 Fibrosarcoma for Tumor Necrosis Factor Bioassay.” Immunol. Lett. 1995, 46:107-110). The cells were treated with a fixed concentration of peptides (10 μM) and varying concentrations of TNFα (0-1 μM), and the fraction of live cells was quantitated by the 3-(4,5-dimethylthiazol-2-yl)-2,5-diphenyltetrazolium bromide (MTT) assay. […] The MTT assay was also conducted at a fixed concentration of TNFα (0.4 ng/mL) but varying concentrations of peptides (0-10 μM).

In data set [4] the target is Recombinant TNFα containing an N-terminal 13-aa ybbR tag (human) (UniProt P01375). Briefly: FA, FITC-peptide + TNFα titration.
Recombinant TNFα containing an N-terminal 13-aa ybbR tag (human), sequence (P01375 77-233): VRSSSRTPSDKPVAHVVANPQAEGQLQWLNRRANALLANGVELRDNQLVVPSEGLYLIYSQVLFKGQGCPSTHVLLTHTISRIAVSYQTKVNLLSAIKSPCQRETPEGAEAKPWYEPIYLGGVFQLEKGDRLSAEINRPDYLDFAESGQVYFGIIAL
For data set [5], the target named is T2, Recombinant TNFα containing an N-terminal 13-aa ybbR tag (human, UniProt P01375 77-233, biotin at the ybbR tag in the ELISA assays).
T2 construct: Expressed in E. coli; Same construct used unlabelled (FA) and biotinylated on NeutrAvidin (ELISA); also called tumor necrosis factor-alpha; human TNFα; not shown: N-terminal 13-aa ybbR tag
T2 sequence (P01375 77-233): as above
The data set is described as follows: FA, FITC-peptide + TNFα titration. The procedure: (§1) The FA values were measured on a Molecular Devices Spectramax M5 spectrofluorimeter, with excitation and emission wavelengths at 485 and 525 nm, respectively. Equilibrium dissociation constants (KD) were determined by plotting the FA values as a function of TNFα concentration and fitting the data to the following equation $$Y = \frac{\left(Amin + \left(Amax \times \frac{Q_b}{Q_f} - Amin\right)\left(\frac{(L+x+K_d) - \sqrt{((L+x+K_d)^2 - 4Lx)}}{2L}\right)\right)}{\left(1 + \left(\frac{Q_b}{Q_f} - 1\right)\left(\frac{(L+x+K_d) - \sqrt{((L+x+K_d)^2 - 4Lx)}}{2L}\right)\right)}$$
(§2) where Y is the measured anisotropy at a given TNFα concentration x; L is the bicyclic peptide concentration; Qb/Qf is the correction fact for dye-protein interaction; Amax is the maximum anisotropy when all the peptides are bound to TNFα, while $Amin$ is the minimum anisotropy. […] The FA values were plotted against the competitor peptide concentration to determine the IC$50$ values.

Data set [6] has as its target T2, Recombinant TNFα containing an …. The data set is described as follows: FA, FITC-peptide + TNFα titration. This is another data set of the same source.
For data set [7] the target is unchanged. The data set is described as follows: FA, FITC-peptide + TNFα titration. The procedure: as §1, §2
This is another data set of the same source.

For data set [8] the target is unchanged. The data set is described as follows: FA.
Data set [9] has the same target. Briefly: cell-based or functional assay.
The target is the same in data set [10]. Briefly: ELISA, inhibition of TNFR1-HRP binding to immobilized biotin-TNFα. An excerpt:
Because of its high-throughput capability, FA analysis had been used to generate all of the SAR data described above. […] Briefly, biotinylated TNFα was immobilized onto a NeutrAvidin-coated surface.

DRQIKIWFQNRRMKWKKTALDWSWLQTE [Antp-NBD]: the “Time to complete degradation in human serum” value in data set [1] is no more than 2 h. Also, the half-life at 5 μM in data set [1] (human, diluted human serum (25%), supernatant after centrifugation) is roughly 15 min.

The molecule `CC(=O)[C@@H](Cc1ccccc1)NC(=O)[C@@H](C)NC(=O)C(N)Cc1ccc(F)c(F)c1` (some centres unmarked) [Compound C1-74-3] returned a half-maximal inhibitory concentration (IC50) in data set [2] of 0.15 ± 0.043 µM. For the same molecule, in data set [3], the LD50 was 2.6 ± 0.9 ng/mL.

In the case of `CCCC[C@@H]1NC(=O)c2cc3cc(c2)C(=O)NC[C@@H](C(=O)NCCC(N)=O)NC(=O)[C@H](Cc2c[nH]cn2)NC(=O)[C@@H](CCCCN)NC(=O)CNC(=O)[C@@H](Cc2c[nH]cn2)NC(=O)[C@H](Cc2c[nH]c4ccccc24)NC(=O)[C@H](CCCCNC3=O)NC(=O)[C@@H](C)NC(=O)[C@H](Cc2ccc(O)cc2)NC1=O` [Compound C1-74] ([Nle]Y[dA]KW[dH]G[dK]H[Dap][βAla]-NH2; linker N-4-10 via Trimesoyl), the midpoint of inhibition in data set [2], the IC50, lay at 0.07 µM. Further, in data set [3], the half-maximal effective concentration (EC50) is roughly 1 µM.

B1: C1-38 (peptide)
peptide: [Nle][Phe(4-F)][dS]K[Phe(4-F)][dH]G[dK]H[Dap]K(FITC)-NH2
modifications: linker (positions not given here) via trimesoyl; not fully specified (N-terminus, bridges)
With B1, in [4], the equilibrium dissociation constant (Kd) was 2.1 µM.

B2: C1-56 (peptide)
peptide: [Nle]Y[dS]KW[dH]G[dK]H[Dap][dF][AEEA]K(FITC)-NH2
modifications: linker (positions not given here) via trimesoyl; not fully specified (N-terminus, bridges)
With B2, the Kd in data set [4] worked out at 0.63 µM.

As to [Nle]Y[dS]KW[dH]G[dK]H[Dap]K(FITC)-NH2 (linker N-4-10 via trimesoyl″) [C1-35], the equilibrium dissociation constant (Kd) in data set [5], in data set [6] and in data set [7] was 0.26 µM each time. Also, in data set [8], the “fold increase in affinity against Tyr at position-5” value amounted to 3 fold.

B3: C1-74 (peptide)
peptide: [Nle]Y[dA]KW[dH]G[dK]H[Dap][βAla]-NH2
modifications: linker N-4-10 via trimesoyl
notes: C1-66 with D-Ser3 reverted to D-Ala; also called bicyclic peptide C1-74
Regarding B3, the “EC50 of protection of WEHI-13VAR cells from 0.4 ng/mL TNFα, MTT” value in data set [9] is roughly 1 µM.

For [Nle]Y[dS]KW[dH]G[dK]H[Dap][βAla]A-NH2 (linker N-4-10 via trimesoyl″, No Lys(FITC) label) [C1-68], the concentration for half-maximal inhibition (IC50) in [10] was found to be 2.6 µM.

The term half-life denotes the time in which the quantity being followed falls by half. A lower half-life goes with rapid decline. A word on the IC50: it is the midpoint of a concentration-inhibition curve. One may read the EC50 as the concentration at which the effect is half-maximal. By Kd is commonly meant the equilibrium constant for the complex coming apart.
